{"source": "patent US20100166733A1", "target": "MCP-1 (known wild type human MCP-1, commercial, R&D #279-MC) (human) (UniProt P13500)", "sequence (P13500 24-99)": "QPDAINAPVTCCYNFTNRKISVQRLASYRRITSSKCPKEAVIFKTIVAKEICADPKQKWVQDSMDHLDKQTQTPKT", "assay": "cell-based or functional assay"}
{"substance": "MCP-1-65-Fc variant (MCP-1 splice variant MCP-1-65 fused to mutated N297A human IgG1 Fc) (Fc fusion)", "values": [{"measurement": "inhibition of MCP-1-induced THP-1 cell migration (transwell, cells counted by FACS), IC50", "result": 0.4, "unit": "nM"}, {"measurement": "inhibition of MCP-1-induced THP-1 cell migration (transwell, cells counted by FACS), percent inhibition", "result": "< 90", "unit": "%"}]}
